One substance from US20130259828A1 can be followed below.

For this test, the target named is IL-12 receptor on mouse lineage negative bone marrow cells (mouse) (UniProt Q60837). Kind of test: cell-based or functional assay.

Several values for one entry are separate records, joined by “and”; a condition that tells them apart may be missing. Equal entries are not always repeated.

Sequence of IL-12 receptor on mouse lineage negative bone marrow cells (mouse) (Q60837 20-738, chain 1 of 2): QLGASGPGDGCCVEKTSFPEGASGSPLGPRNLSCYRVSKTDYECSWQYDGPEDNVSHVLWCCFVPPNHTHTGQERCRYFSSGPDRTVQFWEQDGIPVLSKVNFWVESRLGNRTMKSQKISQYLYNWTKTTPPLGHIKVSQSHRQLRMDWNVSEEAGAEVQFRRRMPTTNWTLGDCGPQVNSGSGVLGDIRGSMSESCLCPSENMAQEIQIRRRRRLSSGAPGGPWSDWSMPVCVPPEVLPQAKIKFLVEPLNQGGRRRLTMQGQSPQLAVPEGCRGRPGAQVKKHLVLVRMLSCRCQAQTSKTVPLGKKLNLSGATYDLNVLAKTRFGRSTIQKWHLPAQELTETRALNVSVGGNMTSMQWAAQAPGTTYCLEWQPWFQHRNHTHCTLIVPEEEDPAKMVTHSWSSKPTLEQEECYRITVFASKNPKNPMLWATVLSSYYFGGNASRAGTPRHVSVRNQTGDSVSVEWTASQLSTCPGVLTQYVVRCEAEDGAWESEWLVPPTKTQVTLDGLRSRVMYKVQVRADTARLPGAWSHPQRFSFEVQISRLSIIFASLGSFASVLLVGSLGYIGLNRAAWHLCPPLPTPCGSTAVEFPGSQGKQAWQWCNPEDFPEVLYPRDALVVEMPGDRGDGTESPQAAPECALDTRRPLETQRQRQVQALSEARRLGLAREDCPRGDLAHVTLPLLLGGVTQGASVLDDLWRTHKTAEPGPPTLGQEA
Sequence of IL-12 receptor on mouse lineage negative bone marrow cells (mouse) (P97378 24-874, chain 2 of 2, further chain): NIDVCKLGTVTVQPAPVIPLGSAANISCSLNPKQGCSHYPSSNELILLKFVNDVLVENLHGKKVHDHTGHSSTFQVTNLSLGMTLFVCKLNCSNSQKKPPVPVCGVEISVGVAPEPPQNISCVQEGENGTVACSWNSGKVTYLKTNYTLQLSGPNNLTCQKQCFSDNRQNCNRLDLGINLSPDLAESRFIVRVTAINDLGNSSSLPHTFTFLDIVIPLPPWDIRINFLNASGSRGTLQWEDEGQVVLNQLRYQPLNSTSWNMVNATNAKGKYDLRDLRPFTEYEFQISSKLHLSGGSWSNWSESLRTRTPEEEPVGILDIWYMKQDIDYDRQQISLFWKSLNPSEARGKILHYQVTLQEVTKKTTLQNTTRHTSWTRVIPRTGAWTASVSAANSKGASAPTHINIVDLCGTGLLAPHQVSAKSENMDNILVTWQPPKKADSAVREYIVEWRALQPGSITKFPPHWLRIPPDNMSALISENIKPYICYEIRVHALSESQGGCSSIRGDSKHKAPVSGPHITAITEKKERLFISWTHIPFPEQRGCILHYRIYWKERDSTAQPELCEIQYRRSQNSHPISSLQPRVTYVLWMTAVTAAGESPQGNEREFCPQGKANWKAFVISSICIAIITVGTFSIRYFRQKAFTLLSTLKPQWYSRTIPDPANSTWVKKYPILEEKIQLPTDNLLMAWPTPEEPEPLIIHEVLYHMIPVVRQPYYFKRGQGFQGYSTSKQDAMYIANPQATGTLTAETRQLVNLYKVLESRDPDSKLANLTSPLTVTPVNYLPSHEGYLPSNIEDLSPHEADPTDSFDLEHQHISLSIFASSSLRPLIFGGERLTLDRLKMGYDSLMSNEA

In the case of “exogenous IL-12 (IL-12 ligand) injected into C57BL/6 mice in Example 7”, the Fold-Increase in Lin- IL-12R+ cells (FACS of bone marrow after in vivo IL-12, 100 ng/mouse) was 5.4 fold and 3.5 fold.
